Article PMC12605528, “A bifunctional peptide–selenium nanocomposite for lysosomal degradation of PD-L1 and enhanced cancer immunotherapy” (Frontiers in Immunology, 2025)

Legend:
[1] = molecular target: T1, PD-L1 (Homo sapiens, UniProt Q9NZQ7); test: ITC; MicroCal iTC200, 25 °C, PBS pH 7.4; peptide at 500 μM in the syringe, PD-L1 or HSC70 at 2.5 μM in the sample chamber; 20 injections of 2 μL
Target sequence in this assay (Q9NZQ7 19-290): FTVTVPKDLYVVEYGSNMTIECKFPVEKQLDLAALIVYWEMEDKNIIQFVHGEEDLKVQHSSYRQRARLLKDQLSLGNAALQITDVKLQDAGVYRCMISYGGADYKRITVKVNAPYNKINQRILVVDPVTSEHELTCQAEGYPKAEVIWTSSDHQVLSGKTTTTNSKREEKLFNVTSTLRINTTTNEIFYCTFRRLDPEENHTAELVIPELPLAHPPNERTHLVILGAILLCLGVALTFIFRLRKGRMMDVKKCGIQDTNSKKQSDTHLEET

[2] = molecular target: T2, HSC70 (Homo sapiens, UniProt P11142); test: as above
Target sequence in this assay (P11142 whole entry): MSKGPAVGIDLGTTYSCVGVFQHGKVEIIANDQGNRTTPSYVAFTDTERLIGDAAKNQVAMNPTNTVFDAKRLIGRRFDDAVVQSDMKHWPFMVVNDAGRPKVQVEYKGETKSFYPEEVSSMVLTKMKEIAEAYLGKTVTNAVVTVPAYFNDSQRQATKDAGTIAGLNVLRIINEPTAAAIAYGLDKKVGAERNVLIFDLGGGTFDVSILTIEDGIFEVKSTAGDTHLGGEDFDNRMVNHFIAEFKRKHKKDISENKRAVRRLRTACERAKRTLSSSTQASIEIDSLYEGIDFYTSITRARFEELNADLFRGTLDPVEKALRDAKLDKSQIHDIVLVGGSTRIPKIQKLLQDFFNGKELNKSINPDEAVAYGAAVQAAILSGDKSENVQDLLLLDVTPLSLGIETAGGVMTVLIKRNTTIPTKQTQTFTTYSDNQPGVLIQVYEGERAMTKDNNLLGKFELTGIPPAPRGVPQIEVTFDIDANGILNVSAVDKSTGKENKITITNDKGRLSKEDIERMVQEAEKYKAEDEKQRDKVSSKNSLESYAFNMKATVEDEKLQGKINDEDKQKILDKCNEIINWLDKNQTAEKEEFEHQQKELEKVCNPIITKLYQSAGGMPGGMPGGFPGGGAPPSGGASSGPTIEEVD

[3] = molecular target: T1, PD-L1; test: Isothermal titration calorimetry (ITC), binding to PD-L1; settings: 25 °C, PBS pH 7.4, peptide 500 μM in syringe, protein 2.5 μM in cell, 20 injections of 2 μL
Method: (§1) Experiments were conducted at 25 °C on a MicroCal iTC200 isothermal titration calorimeter (GE Healthcare) in PBS buffer (pH 7.4). The titration syringe was loaded with peptide a or scrambled peptide prepared at 500 μM, while the sample chamber contained PD-L1 or HSC70 protein at 2.5 μM. The titration consisted of 20 successive injections of 2 μL each, with an equilibration interval of 120 seconds between injections. The average baseline value was calculated from data points obtained under saturation conditions. Following baseline correction, binding constants were determined using the fitting models provided in MicroCal Origin software.
Target sequence in this assay (Q9NZQ7 19-290, species assumed): as the sequence (Q9NZQ7 19-290) above

[4] = molecular target: T2, HSC70; test: Isothermal titration calorimetry (ITC), binding to HSC70; settings: 25 °C, PBS pH 7.4, peptide 500 μM in syringe, protein 2.5 μM in cell, 20 injections of 2 μL
Method: as §1
Target sequence in this assay (P11142 whole entry, species assumed): as the sequence (P11142 whole entry) above

| Substance | Kd [1] | Kd [2] | Kd, binding to PD-L1 [3] | Kd, binding to HSC70 [4] |
| --- | --- | --- | --- | --- |
| bifunctional peptide a (CKFERQ-PEG3-nyskptdrqyhf) | 0.41 µM | 1.28 µM | – | – |
| fhyqrdtpksyn-PEG3-QREFKC [mutant peptide with scrambled sequences] | – | – | no detectable binding | no detectable binding |
